Results reported in paper PMC4048260.

Experiments:
[1] = target: NL4-3 gp140 trimer (soluble, uncleaved gp140 from the X4 HIV-1 subtype B strain NL4-3) (HIV-1 (subtype B, strain NL4-3)); assay: negative-stain electron microscopy, single particle 3D reconstruction; purified trimers, ~0.02 mg/ml, 2% uranyl formate, about 3,000 particles per data set, C3 symmetry applied, resolution ~25 Å
[2] = target: NL4-3/ADA gp140 trimer (hybrid: NL4-3 gp140 with the V3 spanning region of the R5 strain ADA) (HIV-1 (subtype B, strain NL4-3) | HIV-1 (subtype B, strain ADA)); assay: as above

Substance	stoichiometry N [1]	stoichiometry N [2]
NL4-3 gp140 trimer (soluble, uncleaved gp140 from the X4 HIV-1 subtype B strain NL4-3) (domain or fragment)	3	–
NL4-3/ADA gp140 trimer (hybrid: NL4-3 gp140 with the V3 spanning region of the R5 strain ADA) (domain or fragment)	–	3
